# Measurements published in article PMC3695229, “Identification of a Novel TGF-β-Binding Site in the Zona Pellucida C-terminal (ZP-C) Domain of TGF-β-Receptor-3 (TGFR-3)” (PLoS ONE, 2013).
# Substitutions are numbered along the chain they refer to.
# B1: murine TGFR-3-ZP (recombinant ZP domain of TGF-β receptor type 3, residues 438-782, including the EHP) (domain or fragment, mouse, UniProt O88393 438-782, looked up)
# chain: REPEEVQGGVNIALSVKCDNEKMVVAVDKDSFQTNGYSGMELTLLDPSCKAKMNGTHFVLESPLNGCGTRHRRSAPDGVVYYNSIVVQAPSPGDSSGWPDGYEDLESGDNGFPGDTDEGETAPLSRAGVVVFNCSLRQLRSPSGFQDQLDGNATFNMELYNTDLFLVPSPGVFSVAENEHVYVEVSVTKADQDLGFAIQTCFISPYSNPDRMSDYTIIENICPKDDSVKFYSSKRVHFPIPHAEVDKKRFSFVFKSVFNTSLLFLHCELTLCSRNKGSQKLPKCVTPDDACTSLDATMIWTMMQNKKTFTKPLAVVLQVDYKENVPNMKESSPVPPPPQIFHGLD
# modifications: secretory glycoprotein; four potential N-glycosylation sites (positions 491, 570, 589 and 696)
# notes: TGF-β receptor type 3 (TGFR-3, betaglycan), mouse, residues 438-782 (ZP core domain plus C-terminal extension 729-782 with the EHP); numbering adheres to UniProtKB/TrEMBL O88393 and includes the N-terminal signal peptide; From the forward primer the thrombin site LVPRGS precedes residue 438, so Gly-Ser probably remain after cleavage (surmised); Dimer by DLS and SEC only (apparent masses); also …
# B2: human BMP-2 (ligand, UniProt P12643 283-396, looked up)
# chain: QAKHKQRKRLKSSCKRHPLYVDFSDVGWNDWIVAPPGYHAFYCHGECPFPLADHLNSTNHAIVQTLVNSVNSKIPKACCVPTELSAISMLYLDENEKVVLKNYQDMVVEGCGCR
# modifications: biotinylated with Sulfo-NHS-LC-biotin (1 or 2 biotin moieties) for immobilisation
# notes: bone morphogenetic protein 2, human; also called bone morphogenetic protein 2
# B3: TGFR-3-ZP(234) (domain or fragment, mouse, UniProt O88393 438-782, looked up)
# chain: B1 chain with N133Q, N152Q, N259Q
# modifications: one remaining potential N-glycosylation site (N491)
# notes: TGF-β receptor type 3 (TGFR-3, betaglycan), mouse, residues 438-782 with three of four potential N-glycosylation sites mutated to glutamine; numbering adheres to O88393 including the signal peptide; Same construct and vector as m1; also called glycosylation-attenuated TGFR-3-ZP variant; source: HEK293 EBNA cells, secreted, purified (Ni-Sepharose, thrombin cleavage, SEC); not shown: His6, …
# Tests used:
# [1] = molecular target: the molecule itself; experiment: dynamic light scattering; TGFR-3-ZP alone, 2 mg/ml, 20 mM HEPES pH 7.4, 20°C; apparent molecular weight from hydrodynamic radius
# TGFR-3-ZP(234) = molecular target: B3; experiment: SPR; Biacore 2000; biotinylated ligands immobilised on streptavidin-coated CM5 chip, TGFR-3-ZP variants as analytes; 25°C, HBS500 (10 mM HEPES pH 7.4, 500 mM NaCl, 3.4 mM EDTA, 0.005% P20); apparent affinities from equilibrium binding; conditions: both partners purified
# [2] = molecular target: B1; experiment: as above; conditions: both partners purified
# [3] = molecular target: the molecule itself; experiment: SEC; analytical SEC of the ligand-free protein on Superdex 200 10/300, 4°C, 0.5 ml/min; apparent molecular weight against standards
binder,measurement,setting,value
B1,stoichiometry N,[1],2
B2,Kd,TGFR-3-ZP(234),34.6 µM
same,Kd,[2],29.1 µM
B3,stoichiometry N,[3],2
